Among the data in patent US11723913 are reduction of ETP in Ca2+ ionophore-activated PRP of WT mice values, retold here.

For the experiment, the target named is murine protein S (mouse) (UniProt Q08761). As to the kind of experiment: cell-based or functional assay.
Sequence of UniProt Q08761 (Q08761 42-675 limits assumed): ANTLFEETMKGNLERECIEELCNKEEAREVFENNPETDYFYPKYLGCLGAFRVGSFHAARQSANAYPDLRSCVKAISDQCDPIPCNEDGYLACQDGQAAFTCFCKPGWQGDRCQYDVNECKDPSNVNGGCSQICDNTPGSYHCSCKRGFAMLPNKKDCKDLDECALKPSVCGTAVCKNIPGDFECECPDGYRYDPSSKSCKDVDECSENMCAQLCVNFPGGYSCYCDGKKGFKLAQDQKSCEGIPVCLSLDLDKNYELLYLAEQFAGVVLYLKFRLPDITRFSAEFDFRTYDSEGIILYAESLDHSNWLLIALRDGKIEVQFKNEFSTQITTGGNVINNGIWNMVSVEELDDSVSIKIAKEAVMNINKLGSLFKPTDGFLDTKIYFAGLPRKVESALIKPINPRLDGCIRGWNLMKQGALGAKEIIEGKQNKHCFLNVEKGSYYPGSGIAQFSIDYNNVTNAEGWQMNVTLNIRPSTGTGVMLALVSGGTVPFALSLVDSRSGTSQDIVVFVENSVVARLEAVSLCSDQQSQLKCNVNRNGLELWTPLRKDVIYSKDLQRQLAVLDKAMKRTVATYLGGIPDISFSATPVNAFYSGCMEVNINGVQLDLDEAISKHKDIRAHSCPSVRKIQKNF

On to “mutated recombinant mouse APC (rmAPC L38D) (from UniProt P33587 42-460)”, for which the reduction of ETP in Ca2+ ionophore-activated PRP of WT mice at 8 nM APC turned out to be 30%.

In turn, “wild type recombinant mouse APC (wt-rmAPC) (from UniProt P33587 42-460)” had a reduction of ETP in Ca2+ ionophore-activated PRP of WT mice at 8 nM APC of 90%.
